Assay [1] addresses Purified recombinant viral NP protein (influenza virus A/Puerto Rico/8/34 …, UniProt P03466 1-498). The assay is described as follows: pull-down.
Assay [2] addresses Purified recombinant viral PB2 protein (influenza virus A/Puerto Rico/8/34 …, UniProt P03428 1-759). As to the kind of experiment: pull-down.

The results in this text go back to PMC8209278 (iScience, 2021).

Chain of Purified recombinant viral NP protein (P03466 whole entry): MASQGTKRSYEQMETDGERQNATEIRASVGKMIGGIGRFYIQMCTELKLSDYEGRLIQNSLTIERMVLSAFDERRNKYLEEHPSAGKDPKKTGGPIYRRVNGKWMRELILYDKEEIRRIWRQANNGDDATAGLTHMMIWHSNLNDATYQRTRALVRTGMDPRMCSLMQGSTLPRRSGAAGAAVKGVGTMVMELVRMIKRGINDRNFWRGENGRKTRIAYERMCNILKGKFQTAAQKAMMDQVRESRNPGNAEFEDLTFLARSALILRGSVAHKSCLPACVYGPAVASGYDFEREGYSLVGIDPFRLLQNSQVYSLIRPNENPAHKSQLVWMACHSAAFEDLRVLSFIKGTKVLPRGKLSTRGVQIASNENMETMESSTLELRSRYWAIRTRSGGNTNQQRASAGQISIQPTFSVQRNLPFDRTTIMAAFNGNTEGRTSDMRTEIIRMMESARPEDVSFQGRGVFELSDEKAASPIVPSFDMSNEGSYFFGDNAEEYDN

B1: GST-fused full length Suv4-20h2 (enzyme)
chain: not shown
B1: the binding result in assay [1] and in assay [2] was “binds” in each case.
